Source: US20080234193A1 (published 2008)
Several values for one entry are separate records, joined by “and”; a condition that tells them apart may be missing. Equal entries are not always repeated. One block for each molecule: values may come before it.

Columns and labels:
[1] = biological target: PEG-rFVIII Lys 60K br long (UniProt P00451)
[2] = biological target: PEG-rFVIII Lys 40K br long (UniProt P00451)
[3] = biological target: PEG-rFVIII Lys 20K br long (UniProt P00451)
[4] = biological target: PEG-rFVIII Lys 60K br short (UniProt P00451)
[5] = biological target: PEG-rFVIII Lys 20K br short (UniProt P00451)
[6] = biological target: native rFVIII MOQ HEPES 01-E (Advate rAHF-PFM bulk drug substance) (UniProt P00451)
[7] = biological target: PEG-rFVIII Lys 40K br short (UniProt P00451)
[8] = biological target: FVIII control (mock preparation, not PEGylated) (UniProt P00451)
[9] = biological target: native rVWF 133P1 (human) (UniProt P04275); test: SPR (Biacore 3000): native rVWF 133P1 immobilized on CM5 chip, FVIII sample in flow, 1:1 Langmuir model
[10] = biological target: activated factor IX (FIXa); test: cell-based or functional assay
[11] = biological target: native rFVIII MOQ HEPES 01-E (Advate rAHF-PFM bulk drug substance) (UniProt P00451); test: ECA, value as percent of VWF:Ag
[12] = biological target: native rFVIII MOQ HEPES 01-E (Advate rAHF-PFM bulk drug substance) (UniProt P00451); test: ECA, value related to the rVWF protein
[13] = biological target: native rFVIII MOQ HEPES 01-E (Advate rAHF-PFM bulk drug substance) (UniProt P00451); test: ELISA chromogenic assay (ECA): VWF-rFVIII complex captured on anti-VWF antibody, bound FVIII by chromogenic assay
[14] = biological target: native rFVIII MOQ HEPES 01-E (Advate rAHF-PFM bulk drug substance) (UniProt P00451); test: ECA after in vitro incubation in Hepes buffer pH ~7.5 at ambient temperature, day 2
[15] = biological target: native rFVIII MOQ HEPES 01-E (Advate rAHF-PFM bulk drug substance) (UniProt P00451); test: ELISA chromogenic assay (ECA): VWF-rFVIII complex captured on anti-VWF antibody, bound FVIII by chromogenic assay; percent of VWF:Ag
[16] = biological target: native rFVIII MOQ HEPES 01-E (Advate rAHF-PFM bulk drug substance) (UniProt P00451); test: ELISA chromogenic assay (ECA): VWF-rFVIII complex captured on anti-VWF antibody, bound FVIII by chromogenic assay; remark: listed apart in the source
[17] = biological target: native rFVIII MOQ HEPES 01-E (Advate rAHF-PFM bulk drug substance) (UniProt P00451); test: SPR (Biacore 3000): rVWF sample immobilized on CM5 chip, rFVIII in flow, 1:1 Langmuir model
[18] = biological target: native rFVIII MOQ HEPES 01-E (Advate rAHF-PFM bulk drug substance) (UniProt P00451); test: SPR competition (Biacore): VWF-rFVIII complex (5 IU/ml rFVIII) in flow over immobilized unmodified rVWF (competitor)
[19] = biological target: native rFVIII MOQ HEPES 01-E (Advate rAHF-PFM bulk drug substance) (UniProt P00451); test: SPR (Biacore 3000): rVWF sample immobilized on CM5 chip, rFVIII in flow, 1:1 Langmuir model; remark: listed apart in the source
[20] = biological target: native rFVIII MOQ HEPES 01-E (Advate rAHF-PFM bulk drug substance) (UniProt P00451); test: ELISA chromogenic assay (ECA); mean of 133P1-1 to 133P1-3
[21] = biological target: native rFVIII MOQ HEPES 01-E (Advate rAHF-PFM bulk drug substance) (UniProt P00451); test: ECA after in vitro incubation in Hepes buffer pH ~7.5 at ambient temperature, day 8
[22] = biological target: native rFVIII MOQ HEPES 01-E (Advate rAHF-PFM bulk drug substance) (UniProt P00451); test: ECA after in vitro incubation in Hepes buffer pH ~7.5 at ambient temperature, day 5
[23] = biological target: native rFVIII MOQ HEPES 01-E (Advate rAHF-PFM bulk drug substance) (UniProt P00451); test: ECA after in vitro incubation in Hepes buffer pH ~7.5 at ambient temperature, day 0
[24] = biological target: native rFVIII MOQ HEPES 01-E (Advate rAHF-PFM bulk drug substance) (UniProt P00451); test: SPR (Biacore 3000): rVWF sample immobilized on CM5 chip, rFVIII in flow, 1:1 Langmuir model; mean of 133P1-1 and 133P1-2
[25] = biological target: PEG-rVWF Lys 20K br short low, P04275
[26] = biological target: native rVWF 133P1, P04275
[27] = biological target: PEG-rVWF Lys 40K br long low, P04275
[28] = biological target: PEG-rVWF Lys 40K br short low, P04275
[29] = biological target: PEG-rVWF Lys 20K br long low, P04275

PEG-rFVIII Lys 60K br long, sequence (P00451 whole entry, looked up): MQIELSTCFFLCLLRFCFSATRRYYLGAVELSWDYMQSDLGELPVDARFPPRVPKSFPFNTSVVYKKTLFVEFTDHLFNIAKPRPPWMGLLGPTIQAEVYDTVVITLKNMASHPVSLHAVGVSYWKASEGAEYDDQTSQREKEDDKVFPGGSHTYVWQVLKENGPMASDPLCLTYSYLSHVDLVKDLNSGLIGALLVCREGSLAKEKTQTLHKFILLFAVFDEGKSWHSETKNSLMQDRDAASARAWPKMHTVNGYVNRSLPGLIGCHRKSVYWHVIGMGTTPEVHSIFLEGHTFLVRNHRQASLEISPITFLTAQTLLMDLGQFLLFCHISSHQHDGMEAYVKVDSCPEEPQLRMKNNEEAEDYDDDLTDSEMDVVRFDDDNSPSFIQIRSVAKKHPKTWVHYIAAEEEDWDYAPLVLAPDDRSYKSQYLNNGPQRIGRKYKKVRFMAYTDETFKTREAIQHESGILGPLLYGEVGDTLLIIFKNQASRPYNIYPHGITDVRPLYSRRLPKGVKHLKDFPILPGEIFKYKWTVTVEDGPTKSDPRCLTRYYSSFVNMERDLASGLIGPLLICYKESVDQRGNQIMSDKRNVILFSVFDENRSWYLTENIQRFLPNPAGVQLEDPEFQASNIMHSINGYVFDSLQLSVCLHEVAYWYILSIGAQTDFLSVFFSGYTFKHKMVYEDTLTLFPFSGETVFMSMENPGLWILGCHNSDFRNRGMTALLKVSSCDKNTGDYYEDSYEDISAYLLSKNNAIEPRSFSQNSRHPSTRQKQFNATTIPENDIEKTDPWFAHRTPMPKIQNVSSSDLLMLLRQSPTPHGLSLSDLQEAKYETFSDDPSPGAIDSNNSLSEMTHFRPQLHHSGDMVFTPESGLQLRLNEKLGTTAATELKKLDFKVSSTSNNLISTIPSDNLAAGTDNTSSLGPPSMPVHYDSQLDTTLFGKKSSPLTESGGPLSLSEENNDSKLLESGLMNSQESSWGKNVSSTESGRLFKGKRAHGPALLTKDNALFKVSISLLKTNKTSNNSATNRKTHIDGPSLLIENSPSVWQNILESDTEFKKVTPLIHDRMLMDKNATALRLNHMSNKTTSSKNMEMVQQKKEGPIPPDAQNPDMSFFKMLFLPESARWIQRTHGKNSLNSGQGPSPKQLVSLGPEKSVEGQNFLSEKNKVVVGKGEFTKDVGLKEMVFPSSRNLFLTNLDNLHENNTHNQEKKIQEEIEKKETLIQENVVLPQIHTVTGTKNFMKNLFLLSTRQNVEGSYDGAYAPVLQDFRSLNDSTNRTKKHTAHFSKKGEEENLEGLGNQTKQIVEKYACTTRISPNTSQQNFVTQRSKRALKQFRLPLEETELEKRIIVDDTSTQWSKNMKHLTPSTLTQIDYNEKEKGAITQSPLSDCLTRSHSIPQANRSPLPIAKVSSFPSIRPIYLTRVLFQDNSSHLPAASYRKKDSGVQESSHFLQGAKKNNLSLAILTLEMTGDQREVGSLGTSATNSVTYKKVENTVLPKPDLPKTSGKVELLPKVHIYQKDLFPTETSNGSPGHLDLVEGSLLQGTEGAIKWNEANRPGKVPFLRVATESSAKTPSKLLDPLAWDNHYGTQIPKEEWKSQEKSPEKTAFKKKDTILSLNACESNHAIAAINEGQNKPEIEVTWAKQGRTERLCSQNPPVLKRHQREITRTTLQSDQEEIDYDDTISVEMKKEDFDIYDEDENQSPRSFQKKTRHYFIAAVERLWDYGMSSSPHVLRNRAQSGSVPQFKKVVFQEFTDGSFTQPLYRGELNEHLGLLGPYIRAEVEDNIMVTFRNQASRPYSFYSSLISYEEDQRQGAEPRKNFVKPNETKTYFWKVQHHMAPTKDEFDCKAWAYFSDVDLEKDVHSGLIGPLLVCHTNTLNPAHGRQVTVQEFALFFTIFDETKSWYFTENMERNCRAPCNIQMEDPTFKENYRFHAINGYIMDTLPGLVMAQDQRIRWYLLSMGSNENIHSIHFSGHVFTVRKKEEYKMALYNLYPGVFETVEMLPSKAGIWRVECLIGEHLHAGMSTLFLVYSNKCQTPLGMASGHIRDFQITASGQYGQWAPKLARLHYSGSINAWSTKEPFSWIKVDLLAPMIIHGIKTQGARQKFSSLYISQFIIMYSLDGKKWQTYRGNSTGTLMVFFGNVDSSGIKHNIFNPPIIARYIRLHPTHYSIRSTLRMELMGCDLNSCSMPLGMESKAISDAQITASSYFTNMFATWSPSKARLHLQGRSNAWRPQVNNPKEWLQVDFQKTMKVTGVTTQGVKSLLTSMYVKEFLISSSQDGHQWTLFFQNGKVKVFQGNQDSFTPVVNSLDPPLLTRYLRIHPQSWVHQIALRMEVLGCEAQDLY
PEG-rFVIII Lys 20K br long, sequence (P00451 whole entry, looked up): as above
PEG-rFVIII Lys 40K br short, sequence (P00451 whole entry, looked up): as above
PEG-rFVIII Lys 40K br long, sequence (P00451 whole entry, looked up): as above
PEG-rFVIII Lys 20K br short, sequence (P00451 whole entry, looked up): as above
PEG-rFVIII Lys 60K br short, sequence (P00451 whole entry, looked up): as above
FVIII control (mock preparation, not PEGylated), sequence (P00451 whole entry, looked up): as above
native rFVIII MOQ HEPES 01-E (Advate rAHF-PFM bulk drug substance), sequence (P00451 whole entry, looked up): as above

Molecule: activated protein C (APC)
Relative k' of APC-mediated inactivation (non-activated FVIII) relative to native rFVIII [1]: 0.38
Relative k' of APC-mediated inactivation of thrombin-activated FVIII relative to native rFVIIIa [1]: 0.64
Relative k' of APC-mediated inactivation (non-activated FVIII) relative to native rFVIII [2]: 0.35
Relative k' of APC-mediated inactivation of thrombin-activated FVIII relative to native rFVIIIa [2]: 0.54
Relative k' of APC-mediated inactivation (non-activated FVIII) relative to native rFVIII [3]: 0.56
Relative k' of APC-mediated inactivation of thrombin-activated FVIII relative to native rFVIIIa [3]: 0.5
Relative k' of APC-mediated inactivation (non-activated FVIII) relative to native rFVIII [4]: 0.52
Relative k' of APC-mediated inactivation of thrombin-activated FVIII relative to native rFVIIIa [4]: 0.54
Relative k' of APC-mediated inactivation (non-activated FVIII) relative to native rFVIII [5]: 0.46
Relative k' of APC-mediated inactivation of thrombin-activated FVIII relative to native rFVIIIa [5]: 0.5
first order rate of inactivation k', non-activated rFVIII, 0.05 U/ml APC [6]: a first order rate inactivation was observed, with a k' of 0.220*min^-1
Relative k' of APC-mediated inactivation (non-activated FVIII) relative to native rFVIII [7]: 0.44
Relative k' of APC-mediated inactivation of thrombin-activated FVIII relative to native rFVIIIa [7]: 0.55

Molecule: thrombin
Relative k' (first order inactivation rate relative to native rFVIII), 0.5 nM thrombin, FIXa-cofactor assay [1]: 0.51
Relative k' (first order inactivation rate relative to native rFVIII), 0.5 nM thrombin, FIXa-cofactor assay [2]: 0.44
Relative k' (first order inactivation rate relative to native rFVIII), 0.5 nM thrombin, FIXa-cofactor assay [3]: 0.39
Relative k' (first order inactivation rate relative to native rFVIII), 0.5 nM thrombin, FIXa-cofactor assay [8]: 0.72
Relative k' (first order inactivation rate relative to native rFVIII), 0.5 nM thrombin, FIXa-cofactor assay [4]: 0.46
Relative k' (first order inactivation rate relative to native rFVIII), 0.5 nM thrombin, FIXa-cofactor assay [5]: 0.35
Relative k' (first order inactivation rate relative to native rFVIII), 0.5 nM thrombin, FIXa-cofactor assay [7]: 0.48

Kd [9]: 1500 pM
lag phase (min), FIXa-cofactor activity after thrombin activation [10]: 1.15 min
lag phase (min), FIXa-cofactor activity without thrombin activation [10]: 2.4 min
maximum FXa (nM), FIXa-cofactor activity after thrombin activation [10]: 25.1 nM
maximum FXa (nM), FIXa-cofactor activity without thrombin activation [10]: 30.1 nM
maximum rate (nM FXa/min), FIXa-cofactor activity after thrombin activation [10]: 4.24 nM FXa/min
maximum rate (nM FXa/min), FIXa-cofactor activity without thrombin activation [10]: 6.7 nM FXa/min
t1/2 of maximum (min), FIXa-cofactor activity after thrombin activation [10]: 4.24 min
t1/2 of maximum (min), FIXa-cofactor activity without thrombin activation [10]: 4.6 min
Molecule: native rFVIII MOQ HEPES 01-E (Advate rAHF-PFM bulk drug substance) (from UniProt P00451 20-2351)

VWF:FVIIIB capacity (%) [11]: 84%
VWF:FVIIIB (U/mg) [12]: 95 U/mg
VWF:FVIIIB (U/ml) [13]: 15.5 U/ml
Molecule: rVWF control (mock preparation, not PEGylated) (from UniProt P04275 764-2813)

VWF:FVIIIB specific activity (U/mg protein) [14]: 66 U/mg protein
VWF:FVIIIB capacity (%) [15]: 84%
VWF:FVIIIB (U/ml) [16]: 46 U/ml
VWF:FVIIIB (U/mg) [12]: 134 U/mg
Kd [17]: 549 pM
VWF to FVIII ratio to keep all FVIII in a complex [18]: 1 µg/IU
Kd [19]: 290 pM and 550 pM and 480 pM
VWF:FVIIIB (U/ml) [20]: 41.2 U/ml
VWF:FVIIIB specific activity (U/mg protein) [21]: 84 U/mg protein
VWF:FVIIIB specific activity (U/mg protein) [22]: 93 U/mg protein
VWF:FVIIIB specific activity (U/mg protein) [23]: 81 U/mg protein
Kd [24]: 390 pM
VWF:FVIIIB (U/ml) [13]: 47.9 U/ml and 37.9 U/ml and 37.8 U/ml
Molecule: native rVWF 133P1 (from UniProt P04275 764-2813)

B1: ADAMTS13 (VWF cleaving protease) (protein)
chain: AAGGILHLELLVAVGPDVFQAHQEDTERYVLTNLNIGAELLRDPSLGAQFRVHLVKMVILTEPEGAPNITANLTSSLLSVCGWSQTINPEDDTDPGHADLVLYITRFDLELPDGNRQVRGVTQLGGACSPTWSCLITEDTGFDLGVTIAHEIGHSFGLEHDGAPGSGCGPSGHVMASDGAAPRAGLAWSPCSRRQLLSLLSAGRARCVWDPPRPQPGSAGHPPDAQPGLYYSANEQCRVAFGPKAVACTFAREHLDMCQALSCHTDPLDQSSCSRLLVPLLDGTECGVEKWCSKGRCRSLVELTPIAAVHGRWSSWGPRSPCSRSCGGGVVTRRRQCNNPRPAFGGRACVGADLQAEMCNTQACEKTQLEFMSQQCARTDGQPLRSSPGGASFYHWGAAVPHSQGDALCRHMCRAIGESFIMKRGDSFLDGTRCMPSGPREDGTLSLCVSGSCRTFGCDGRMDSQQVWDRCQVCGGDNSTCSPRKGSFTAGRAREYVTFLTVTPNLTSVYIANHRPLFTHLAVRIGGRYVVAGKMSISPNTTYPSLLEDGRVEYRVALTEDRLPRLEEIRIWGPLQEDADIQVYRRYGEEYGNLTRPDITFTYFQPKPRQAWVWAAVRGPCSVSCGAGLRWVNYSCLDQARKELVETVQCQGSQQPPAWPEACVLEPCPPYWAVGDFGPCSASCGGGLRERPVRCVEAQGSLLKTLPPARCRAGAQQPAVALETCNPQPCPARWEVSEPSSCTSAGGAGLALENETCVPGADGLEAPVTEGPGSVDEKLPAPEPCVGMSCPPGWGHLDATSAGEKAPSPWGSIRTGAQAAHVWTPAAGSCSVSCGRGLMELRFLCMDSALRVPVQEELCGLASKPGSRREVCQAVPCPARWQYKLAACSVSCGRGVVRRILYCARAHGEDDGEEILLDTQCQGLPRPEPQEACSLEPCPPRWKVMSLGPCSASCGLGTARRSVACVQLDQGQDVEVDEAACAALVRPEASVPCLIADCTYRWHVGTWMECSVSCGDGIQRRRDTCLGPQAQAPVPADFCQHLPKPVTVRGCWAGPCVGQGTPSLVPHEEAAAPGRTTATPAGASLEWSQARGLLFSPAPQPRRLLPGPQENSVQSSACGRQHLEPTGTIDMRGPGQADCAVAIGRPLGEVVTLRVLESSLNCSAGDMLLLWGRLTWRKMCRKLLDMTFSSKTNTLVVRQRCGRPGGGVLLRYGSQLAPETFYRECDMQLFGPWGEIVSPSLSPATSNAGGCRLFINVAPHARIAIHALATNMGAGTEGANASYILIRDTHSLRTTAFHGQQVLYWESESSQAEMEFSEGFLKAQASLRGQYWTLQSWVPEMQDPQSWKGKEGT
loss of VWF:CB activity after 4 h incubation with ADAMTS13 under denaturing conditions [25]: The PEGylated conjugates showed a slightly higher susceptibility to ADAMTS13 than their parent native rVWF.
disappearance of higher molecular weight multimers after incubation with ADAMTS13 [26]: All preparations showed similar sensitivity to ADAMTS13.
loss of VWF:CB activity after 4 h incubation with ADAMTS13 under denaturing conditions [27]: The PEGylated conjugates showed a slightly higher susceptibility to ADAMTS13 than their parent native rVWF.
loss of VWF:CB activity after 4 h incubation with ADAMTS13 under denaturing conditions [28]: The PEGylated conjugates showed a slightly higher susceptibility to ADAMTS13 than their parent native rVWF.
loss of VWF:CB activity after 4 h incubation with ADAMTS13 under denaturing conditions [29]: The PEGylated conjugates showed a slightly higher susceptibility to ADAMTS13 than their parent native rVWF.
